Here are results for one molecule from patent US20100112057A1 (published 2010).

What is called Kd is the constant that tells how readily two partners part at equilibrium. Higher therefore signals lower affinity.

Series [1] concerns the molecule itself. As to the kind of experiment: circular dichroism in PBS; concentration dependence of MRE at 222 nm fitted for the Kd of coiled-coil dimerization (unfolding/dissociation of the dimer).
In series [2] the target is T1, streptavidin (streptavidin-coated SA chip) (UniProt P22629 37-163, limits assumed).
T1 construct: Surface protein of the commercial SPR chip
The series can be described thus: SPR, Biacore 3000, streptavidin-coated (SA) chip. For orientation: Surface plasmon resonance follows binding to a sensor surface in real time, without labels.

T1 sequence (P22629 37-163 limits assumed): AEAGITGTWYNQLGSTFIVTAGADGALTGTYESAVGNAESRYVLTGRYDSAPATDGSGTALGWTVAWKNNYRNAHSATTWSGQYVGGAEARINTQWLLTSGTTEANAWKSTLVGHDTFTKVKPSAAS

B1: PF4ZIP (peptide)
peptide: CGGRMKQLEDKVKKLLKKNYHLENEVARLKKLVG
notes: Free peptide made by Fmoc solid phase synthesis on Rink Amide MBHA resin; The measurement is the self-association of two such chains into a coiled-coil dimer; also called PF4ZIP peptide
Regarding B1, binding in series [1] was put at a Kd of 3.48 µM. In addition, the binding result in series [2] is listed as “no binding”.
